T1: recombinant soluble human Seprase (rhuSeprase) (human, UniProt Q12884 29-760)
T1 construct: range 29-760; Secreted from CHO-S cells with a mouse Ig kappa secretion signal (not part of the protein in the assay); also called recombinant human Seprase; soluble fraction of human Seprase
T1 sequence: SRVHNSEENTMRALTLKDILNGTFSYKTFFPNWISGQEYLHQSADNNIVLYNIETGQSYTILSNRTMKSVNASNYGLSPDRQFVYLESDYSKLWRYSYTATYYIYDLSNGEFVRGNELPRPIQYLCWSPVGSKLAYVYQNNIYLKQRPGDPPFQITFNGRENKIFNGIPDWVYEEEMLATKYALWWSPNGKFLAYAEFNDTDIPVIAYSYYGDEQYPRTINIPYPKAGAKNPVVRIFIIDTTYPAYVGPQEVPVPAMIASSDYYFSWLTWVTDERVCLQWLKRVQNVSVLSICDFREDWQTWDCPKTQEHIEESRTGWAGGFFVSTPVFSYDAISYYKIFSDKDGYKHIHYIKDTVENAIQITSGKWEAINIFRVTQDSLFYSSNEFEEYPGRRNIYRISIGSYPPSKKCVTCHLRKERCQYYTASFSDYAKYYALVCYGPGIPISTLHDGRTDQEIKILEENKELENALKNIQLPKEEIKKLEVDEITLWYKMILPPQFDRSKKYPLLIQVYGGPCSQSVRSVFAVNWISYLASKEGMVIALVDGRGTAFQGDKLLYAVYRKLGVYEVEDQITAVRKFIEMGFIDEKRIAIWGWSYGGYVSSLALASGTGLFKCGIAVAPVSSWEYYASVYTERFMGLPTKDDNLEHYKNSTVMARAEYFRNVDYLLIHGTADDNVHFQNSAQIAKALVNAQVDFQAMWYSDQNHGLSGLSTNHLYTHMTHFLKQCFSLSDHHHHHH

B1: AlexaFluor680-(MC-FA-012)3 (designed binder, not shown: small tags and cut ends)
chain 1: GACPYSNWTPGRGPDCRRDSDCPGRCICRGNGYCG
chain 2: B1 chain 1
chain 3: B1 chain 1
modifications: each of chains 1-3: N-terminal aminooxy group oxime-ligated to the anchor; three disulfides (cystine knot) per chain; anchor carries AlexaFluor680 at its N-terminal amine
notes: Purchased from Pepscan; also called AF680-(MC-FA-012)3
B2: MC-FA-012 (designed binder)
chain: B1 chain 1
modifications: disulfide (positions not given here)
notes: it is derived from MC-FA-010 and K2A; also called MC-FA-012 (K2A); monomeric MC-FA-012 Microbody
B3: Trx-MC-FA-012 fusion protein (designed binder)
chain: B1 chain 1
modifications: disulfide 16-28, 22-34, 3-26; also: N-terminal Trx-His6-S-tag fusion carrier, not in chain
notes: also called MC-FA-012 (K2A) alanine scan variant; not shown: N-terminal carrier of the pET-32-LibEx fusion (thioredoxin-A, His tag, S-tag, thrombin site, vector linkers)
B4: Trx-MC-FA-015 (designed binder)
chain: B1 chain 1 with A2K, S6A
modifications: disulfide 16-28, 22-34, 3-26; also: N-terminal Trx-His6-S-tag fusion carrier, not in chain
notes: the position follows from the order of the rows; also called alanine scan variant S6A of MC-FA-010, Trx fusion; not shown: thioredoxin-A, His6 tag, S-tag and linkers of the pET-32-LibEx fusion (N-terminal carrier)
B5: Trx-MC-FA-0115 (designed binder)
chain: B1 chain 1 with A2K, R25A
modifications: disulfide 16-28, 22-34, 3-26; also: N-terminal Trx-His6-S-tag fusion carrier, not in chain
notes: also called alanine scan variant R25A of MC-FA-010, Trx fusion; not shown: Thioredoxin-A, His-tag (H6), S-tag and linker of the pET-32-LibEx fusion, N-terminal of the miniprotein
B6: Trx-MC-FA-0114 (designed binder)
chain: B1 chain 1 with A2K, D15A
modifications: disulfide 16-28, 22-34, 3-26; also: N-terminal Trx-His6-S-tag fusion carrier, not in chain
notes: the position follows from the order of the rows; also called alanine scan variant D15A of MC-FA-010, Trx fusion; not shown: Thioredoxin-A, His-tag (H6), S-tag and linker of the pET-32-LibEx fusion, N-terminal of the miniprotein
B7: Trx-MC-FA-013 (designed binder)
chain: B1 chain 1 with A2K, P4A
modifications: disulfide 16-28, 22-34, 3-26; also: N-terminal Trx-His6-S-tag fusion carrier, not in chain
notes: the position follows from the order of the rows; also called alanine scan variant P4A of MC-FA-010, Trx fusion; not shown: Thioredoxin-A, His-tag (H6), S-tag and linker of the pET-32-LibEx fusion, N-terminal of the miniprotein
B8: Trx-MC-FA-011 (designed binder)
chain: B1 chain 1 with G1A, A2K
modifications: disulfide 16-28, 22-34, 3-26; also: N-terminal Trx-His6-S-tag fusion carrier, letters not given here
notes: the position follows from the order of the rows; also called alanine scan variant G1A of MC-FA-010, Trx fusion; not shown: Thioredoxin-A, His-tag (H6), S-tag and linker of the pET-32-LibEx fusion, N-terminal of the miniprotein

Changes are numbered by the printed parent chain. In names and notes the source's numbering stands. Positions of bridges follow the written chain, without caps; N, C: chain ends. No end group written: not given here.

The first assay has as its target T1, recombinant soluble human Seprase …. Put plainly: SPR (Biacore T-100). As to the method:
(§1) RhuSeprase (20 μg/ml in PBS, 5% mannitol, 5% trehalose) was immobilized on an amino reactive Series S Sensor Chip CM5 (GE Healthcare). For binding analysis of monomeric Microbodies rhuSeprase was loaded to a maximum of 7500 RU, for oligomeric Microbodies to a maximum of 700 RU. Monomeric Microbodies were measured using a multi cycle kinetic method in a concentration range of 3.125 to 1000 nM based on expected dissociation constant. Association step was measured over a time period of 60-90 seconds, dissociation over 420 seconds. Trimeric Mircobodies were measured using a single cycle kinetics method in a concentration range of 0.3125 to 5 nM (association for 90 seconds, dissociation 420 seconds). Binding kinetics and steady state analysis were calculated using a 1:1 binding model (Biacore T-100 Evaluation Software, GE Healthcare).
(§2) The binding kinetics of monomeric and trimeric Seprase-binding Microbodies was determined using surface plasmon resonance spectroscopy on a Biacore T-100 system.
(Surface plasmon resonance follows binding to a sensor surface in real time, without labels.)
Regarding B1, the “times slower offrate compared to MC-FA-012” value was roughly 134 fold.

For a further assay the target is unchanged. The assay is described as follows: SPR (Biacore T-100), rhuSeprase immobilized on CM5, multi cycle kinetics, 1:1 fit. As to the method:
as §1, §2
In the case of GSGACPYSNWTPGRGPDCSQDSDCLAGCVCGPNGFCG (designed binder) [ET-FA-012], the Kd is 1400 nM, the koff was 0.853 s⁻¹ and the kon stood at 608000 M⁻¹ s⁻¹.

Regarding B2, the Kd is 340 nM, the off-rate constant (koff) worked out at 0.139 s⁻¹ and the kon came out at 408000 M⁻¹ s⁻¹.

As to GSGACPYSNWTPGRGPDCSSDSDCPGACICLENGFCG (designed binder) [MO-FA-012], the Kd worked out at 1340 nM, the koff was 0.513 s⁻¹ and the kon amounted to 382000 M⁻¹ s⁻¹.

With GSGACPYTRWAVGRGPDCRRDSDCPGRCICRGNGYCG (designed binder) [FA8-D03], the Kd came out at 147 nM, the koff is 0.138 s⁻¹ and the kon came out at 939000 M⁻¹ s⁻¹.

Take GSGACPYSNWAVGRGPSCRRDSDCPGRCICRGNGYCG (designed binder) [FA8-F04]: the Kd is 321 nM, the koff turned out to be 0.2 s⁻¹ and the kon is 624000 M⁻¹ s⁻¹.

As for GSGACPYSRWMPGRGPSCRRDSDCPGRCICRGNGYCG (designed binder) [FA7-A05], the Kd was 205 nM, the koff worked out at 0.0503 s⁻¹ and the kon is 246000 M⁻¹ s⁻¹.

For the molecule GSGACPYTRWQPGRGPSCRRDSDCPGRCICRGNGYCG (designed binder) [FA8-D05], the Kd came to 193 nM, the koff is 0.812 s⁻¹ and the kon came out at 4.21e+06 M⁻¹ s⁻¹.

As to GSGACPYTNWHPGRGPACRRDSDCPGRCICRGNGYCG (designed binder) [FA8-G12], the Kd stood at 487 nM, the koff amounted to 0.317 s⁻¹ and the kon came out at 651000 M⁻¹ s⁻¹.

As to GSGACPYSRWAVGRGPDCRRDSDCPGRCICRGNGYCG (designed binder) [FA8-D06], the Kd was found to be 153 nM, the koff stood at 0.053 s⁻¹ and the kon is 346000 M⁻¹ s⁻¹.

Consider GSGACPYTNWRPGRGPACRRDSDCPGRCICRGNGYCG (designed binder) [FA8-C09], for which the Kd stood at 296 nM, the koff stood at 2.94 s⁻¹ and the kon is 9.92e+06 M⁻¹ s⁻¹.

For a further assay the target is unchanged. Put plainly: SPR (Biacore T-100), rhuSeprase immobilized on CM5, single cycle kinetics, 1:1 fit. As to the method:
as §1, §2
Regarding B1, the Kd was 0.0615 nM and the kon was found to be 1.68e+07 M⁻¹ s⁻¹.

Another assay shares this target. The assay is described as follows: SPR (Biacore T-100), rhuSeprase immobilized on CM5, steady state analysis, 1:1 fit. As to the method:
as §1, §2
As to GSGACPYSNWTPGRGPDCSQDSDCLAGCVCGPNGFCG (designed binder) [ET-FA-012], the Kd is 4540 nM.

In the case of B2, the Kd stood at 246 nM.

On to B1, for which the Kd was found to be 0.669 nM.

Turning to GSGACPYSNWTPGRGPDCSSDSDCPGACICLENGFCG (designed binder) [MO-FA-012], the Kd is 1160 nM.

On to GSGACPYTRWAVGRGPDCRRDSDCPGRCICRGNGYCG (designed binder) [FA8-D03], for which the Kd came to 151 nM.

As to GSGACPYSNWAVGRGPSCRRDSDCPGRCICRGNGYCG (designed binder) [FA8-F04], the Kd worked out at 332 nM.

GSGACPYSRWMPGRGPSCRRDSDCPGRCICRGNGYCG (designed binder) [FA7-A05]: the Kd is 102 nM.

GSGACPYTRWQPGRGPSCRRDSDCPGRCICRGNGYCG (designed binder) [FA8-D05]: the Kd was determined as 177 nM.

GSGACPYTNWHPGRGPACRRDSDCPGRCICRGNGYCG (designed binder) [FA8-G12]: the Kd came out at 470 nM.

In the case of GSGACPYSRWAVGRGPDCRRDSDCPGRCICRGNGYCG (designed binder) [FA8-D06], the Kd came to 113 nM.

In the case of GSGACPYTNWRPGRGPACRRDSDCPGRCICRGNGYCG (designed binder) [FA8-C09], the Kd was 243 nM.

Another assay shares this target. Put plainly: direct ELISA on coated rhuSeprase; binding relative to the parental Trx-MC-FA-010. The procedure:
(§3) For protein based ELISA analysis 5 μg of the respective recombinant protein (rhuSeprase; streptavidin: Sigma; DPP-IV: R&D Systems, BSA: Eurobio) were immobilized per well of a MaxiSorp™ plate (Nunc) by overnight incubation in coating buffer at 4° C. After washing thrice with 300 μl PBS-T/well on a Hydrospeed plate washer (Tecan) the wells were blocked with 1×Casein solution (Sigma, diluted in PBS) for 2 h at RT. Subsequently, the wells were washed as indicated above. 100 μl of the respective Trx-miniprotein fusion diluted in PBS-T was then added and incubated for 1 h at 4° C. […] For competition ELISAs a fixed concentration of 3 nM Trx-miniprotein fusion was mixed with varying concentration (0.64-3167 nM) of solitary miniprotein before incubation. Binding of the Trx-fusion was detected after a PBS-T washing procedure using HRP coupled anti S-tag antibody as described above. Apparent Kd was calculated using Sigmaplot 10 and an one site saturation binding model for fitting of the data.
In the case of B3, the “Relative Bindung im Vergleich zu Trx-MC-FA-010 [%]” value came out at 160%.

B4: the “Relative Bindung im Vergleich zu Trx-MC-FA-010 [%]” value was found to be 93.6%.

As for B5, the “Relative Bindung im Vergleich zu Trx-MC-FA-010 [%]” value came out at 80.7%.

For B6, the “Relative Bindung im Vergleich zu Trx-MC-FA-010 [%]” value is 59.2%.

With B7, the “Relative Bindung im Vergleich zu Trx-MC-FA-010 [%]” value is 33.7%.

B8: the “Relative Bindung im Vergleich zu Trx-MC-FA-010 [%]” value turned out to be 74.5%.

The target is the same in the next assay. The assay is described as follows: direct ELISA on coated rhuSeprase, Trx fusion detected with anti-S-tag-HRP; apparent KD from one site saturation fit; Error 0,54; R2 0,9981. The procedure:
as §3
(In general: An ELISA detects its analyte on a solid surface through an enzyme-linked reagent.)
Consider B3, for which the Kd was determined as 9.49 nM.

The target is the same in a further assay. The assay is described as follows: direct ELISA on coated rhuSeprase, Trx fusion detected with anti-S-tag-HRP; apparent KD from one site saturation fit; Error 1,02; R2 0,9976. The procedure:
as §3
For B4, the Kd worked out at 16.2 nM.

A further assay shares this target. The assay is described as follows: direct ELISA on coated rhuSeprase, Trx fusion detected with anti-S-tag-HRP; apparent KD from one site saturation fit; Error 1,17; R2 0,9977. The procedure:
as §3
As to B5, the Kd was found to be 18.8 nM.

For another assay the target is unchanged. The assay is described as follows: direct ELISA on coated rhuSeprase, Trx fusion detected with anti-S-tag-HRP; apparent KD from one site saturation fit; Error 1,17; R2 0,9981. The procedure: as §3
B8: the Kd was 20.3 nM.

The target is the same in the next assay. The assay is described as follows: direct ELISA on coated rhuSeprase, Trx fusion detected with anti-S-tag-HRP; apparent KD from one site saturation fit; Error 1,76; R2 0,9973. As to the method: as §3
In the case of B6, the Kd worked out at 25.6 nM.

The next assay has the same target. Put plainly: direct ELISA on coated rhuSeprase, Trx fusion detected with anti-S-tag-HRP; apparent KD from one site saturation fit; Error 3,04; R2 0,9976. The procedure: as §3
As to B7, the Kd amounted to 44.9 nM.

The term koff denotes the rate constant with which the complex falls apart. For orientation: kon means a measure of how fast the partners come together.

(Values after patent US20180037632A1 (BIONTECH, published 2018).)
